Experimental findings from paper PMC10843048 are described below.

The target in test [1] is His+Ala+TIMP2Q186 (human). In words: SPR. (In general: In SPR one partner is held on a chip, and binding of the other changes the refractive index at the surface.)
The target of another test is His+Ala+TIMP2 (human) (UniProt P16035). As to the kind of experiment: SPR.
Sequence of UniProt P16035 (P16035 26-220): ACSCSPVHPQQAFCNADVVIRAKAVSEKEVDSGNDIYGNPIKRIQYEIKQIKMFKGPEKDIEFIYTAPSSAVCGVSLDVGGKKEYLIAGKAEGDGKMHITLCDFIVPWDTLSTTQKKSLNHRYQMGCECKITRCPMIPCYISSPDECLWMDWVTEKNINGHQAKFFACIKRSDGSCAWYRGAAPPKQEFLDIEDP

What is called Kd is the concentration at which binding is half-saturated. High values mean a looser complex, low ones a tighter complex. Take “Recombinant C-domain of MMP2 (C-MMP2) (domain or fragment)”: the Kd in test [1] was determined as 1900 nM; with His+Ala+TIMP2 (human) it was 0.76 nM.
